Results as given in patent US20240376218A1 (published 2024).

Assays:
murine CCR8 [1] = molecular target: T1, murine CCR8 (mouse, UniProt P56484 1-353); assay: cell-based or functional assay
T1 sequence: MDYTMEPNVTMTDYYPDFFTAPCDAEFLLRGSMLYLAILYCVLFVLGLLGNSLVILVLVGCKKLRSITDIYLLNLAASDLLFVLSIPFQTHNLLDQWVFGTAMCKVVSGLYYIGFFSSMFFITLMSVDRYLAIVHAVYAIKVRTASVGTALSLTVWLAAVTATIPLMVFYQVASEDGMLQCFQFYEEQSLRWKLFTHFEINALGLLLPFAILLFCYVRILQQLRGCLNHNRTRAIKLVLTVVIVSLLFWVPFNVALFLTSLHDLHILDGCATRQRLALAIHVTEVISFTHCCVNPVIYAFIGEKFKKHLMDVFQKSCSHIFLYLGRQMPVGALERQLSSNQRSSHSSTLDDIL

human CCR8 [2] = molecular target: T2, human CCR8 (human, UniProt P51685 1-355); assay: cell-based or functional assay
human CCR8 [3] = molecular target: T2, human CCR8; assay: cell-based or functional assay; remark: listed apart in the source
human CCR8 [4] = molecular target: T3, human CCR8 (human, UniProt P51685 1-355); assay: FACS, HuT78 cells endogenously expressing human CCR8
T3 construct: also called hCCR8; P51685_CCR8_HUMAN

[5] = molecular target: T4, FcRn immobilized on FcRn column (Roche, Order No. 8128057001); assay: FcRn affinity chromatography, linear pH gradient
T4 construct: bought prepacked column; also called immobilized FcRn
Procedure: 30 μL of each antibody (1 mg/mL in equilibration buffer) was applied to the column.

murine CCR8 [6] = molecular target: T5, murine CCR8 (mouse, UniProt P56484 1-353); assay: cell-based or functional assay; remark: listed apart in the source
T5 sequence: T1 sequence

murine CCR8 [7] = molecular target: T1, murine CCR8; assay: cell-based or functional assay; remark: listed apart in the source

T4 sequence (P55899 24-297, chain 1 of 2): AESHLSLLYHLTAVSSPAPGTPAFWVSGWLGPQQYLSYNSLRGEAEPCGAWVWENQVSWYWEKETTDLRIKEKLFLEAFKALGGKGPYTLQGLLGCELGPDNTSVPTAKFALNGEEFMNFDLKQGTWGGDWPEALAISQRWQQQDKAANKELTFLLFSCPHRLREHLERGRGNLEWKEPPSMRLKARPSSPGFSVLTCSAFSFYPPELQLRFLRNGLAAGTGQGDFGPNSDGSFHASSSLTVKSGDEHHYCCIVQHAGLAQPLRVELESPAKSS
T4 sequence (P61769 21-119, chain 2 of 2, further chain): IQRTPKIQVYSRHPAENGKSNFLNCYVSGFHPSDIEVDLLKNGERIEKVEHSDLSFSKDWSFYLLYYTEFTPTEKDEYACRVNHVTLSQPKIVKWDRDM

B1: TPP-14095 (antibody, human IgG1, lambda, V domains shown)
VH: EVQLLESGGGLVQPGGSLRLSCAASGFTFSSYGMHWVRQAPGKGLEWVSAISGSGGSTYYADSVKGRFTISRDNSKNTLYLQMNSLRAEDTAVYYCARGRQLGSWGQGTLVTVSS
VL: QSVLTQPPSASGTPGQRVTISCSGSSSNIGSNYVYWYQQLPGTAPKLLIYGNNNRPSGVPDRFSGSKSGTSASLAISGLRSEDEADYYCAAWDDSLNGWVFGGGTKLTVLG
Ca flux assay IC50 (nM), block of signaling induced by CCL1 at 40 ng/ml; CHO cells expressing murine CCR8 (murine CCR8 [1]): 1.65 nM

B2: TPP-21045 (antibody, human IgG1, lambda, V domains shown)
VH: EVQLLESGGGLVQPGGSLRLSCAASGFTFSSAWMSWVRQAPGKGLEWVSGISWSGGSTGYALSVKGRFTISRDNSKNTLYLQMNSLRAEDTAVYYCARTYSGHYGPFFDYWGQGTLVTVSS
VL: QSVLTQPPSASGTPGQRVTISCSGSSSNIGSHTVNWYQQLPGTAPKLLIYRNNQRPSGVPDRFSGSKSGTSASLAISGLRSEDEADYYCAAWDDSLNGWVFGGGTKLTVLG
Ca flux assay IC50 (nM), block of signaling induced by CCL1 at 60 ng/ml; CHO cells expressing human CCR8 (human CCR8 [2]): 0.29 nM

B3: TPP-20955 (antibody, human IgG1, lambda, V domains shown)
VH: EVQLLESGGGLVQPGGSLRLSCAASGFTFSSYGMHWVRQAPGKGLEWVSAIKWGGGSHGYADSVKGRFTISRDNSKNTLYLQMNSLRAEDTAVYYCARGHHKGYDGRFFDYWGQGTLVTVSS
VL: QSVLTQPPSVSGAPGQRVTISCTGSSSNIGAGYNVHWYQQLPGTAPKLLIYTNNRRPSGVPDRFSGSKSGTSASLAISGLRSEDEADYYCAAWDASLSGWVFGGGTKLTVLG
Ca flux assay IC50 (nM), block of signaling induced by CCL1 at 60 ng/ml; CHO cells expressing human CCR8 (human CCR8 [2]): 0.52 nM
Ca flux assay Span ratio (from max to min), block of signaling induced by CCL1 at 60 ng/ml; CHO cells expressing human CCR8 (human CCR8 [3]): ~11400

B4: TPP-27495 (antibody, human IgG1, lambda)
heavy: EVQLLESGGGLVQPGGSLRLSCAASGFTFSSYGMHWVRQAPGKGLEWVSAINWNGGSTGYADSVKGRFTISRDNSKNTLYLQMNSLRAEDTAVYYCARGHHSGYDGRFFDYWGQGTLVTVSSASTKGPSVFPLAPSSKSTSGGTAALGCLVKDYFPEPVTVSWNSGALTSGVHTFPAVLQSSGLYSLSSVVTVPSSSLGTQTYICNVNHKPSNTKVDKKVEPKSCDKTHTCPPCPAPELLGGPSVFLFPPKPKDTLYITREPEVTCVVVDVSHEDPEVKFNWYVDGVEVHNAKTKPREEQYNSTYRVVSVLTVLHQDWLNGKEYKCKVSNKALPAPIEKTISKAKGQPREPQVYTLPPSRDELTKNQVSLTCLVKGFYPSDIAVEWESNGQPENNYKTTPPVLDSDGSFFLYSKLTVDKSRWQQGNVFSCSVMHEALHNHYTQKSLSLSPGK
light: not shown
notes: 70% afucosylated
EC50 (human CCR8 [4]): 3.25 nM

B5: TPP-27495 (antibody, human IgG1, lambda)
heavy: B4 heavy
light: not shown
modifications: 70% afucosylated
pH at Elution [5]: 7.88 pH

B6: TPP-15285 (antibody, mouse IgG2a)
heavy: EVQLLESGGGLVQPGGSLRLSCAASGFTFSDYGVHWVRQAPGKGLEWVSGVSWNGSRTHYADSVKGRFTISRDNSKNTLYLQMNSLRAEDTAVYYCVTRGAWGQGTLVTVSSAKTTAPSVYPLAPVCGDTTGSSVTLGCLVKGYFPEPVTLTWNSGSLSSGVHTFPAVLQSDLYTLSSSVTVTSSTWPSQSITCNVAHPASSTKVDKKIEPRGPTIKPCPPCKCPAPNLLGGPSVFIFPPKIKDVLMISLSPIVTCVVVDVSEDDPDVQISWFVNNVEVHTAQTQTHREDYNSTLRVVSALPIQHQDWMSGKEFKCKVNNKDLPAPIERTISKPKGSVRAPQVYVLPPPEEEMTKKQVTLTCMVTDFMPEDIYVEWTNNGKTELNYKNTEPVLDSDGSYFMYSKLRVEKKNWVERNSYSCSVVHEGLHNHHTTKSFSRTPGK
light: QSVLTQPPSASGTPGQRVTISCSGSSFNIGSHFVYWYQQLPGTAPKLLIYKNNQRPSGVPDRFSGSKSGTSASLAISGLRSEDEADYYCAAWDDSLNGPVFGGGTKLTVLGQPKSSPSVTLFPPSSEELETNKATLVCTITDFYPGVVTVDWKVDGTPVTQGMETTQPSKQSNNKYMASSYLTLTARAWERHSSYSCQVTHEGHTVEKSLSRADCS
ADCC EC50 (pM); murine CCR8 expressing HEK293 target cells, primary murine NK effector cells (murine CCR8 [6]): 111 pM

B7: TPP-15285 (antibody, mouse IgG2a)
heavy: B6 heavy
light: B6 light
ADCP EC50 (pM); murine CCR8 expressing HEK293 target cells, murine bone marrow derived M2 macrophages (murine CCR8 [7]): 402 pM
